Here are results for twelve molecules from patent US20110002963A1 (IMMATICS BIOTECHNOLOGIES, published 2011).

A word on the Kd: it is the constant that tells how readily two partners part at equilibrium.

First the molecules themselves.
B1: NLGN4X-001 (peptide)
peptide: NLDTLMTYV
notes: also called IMA-NLGN4X-001
B2: PTP-005 (peptide)
peptide: KVFAGIPTV
notes: also called IMA-PTP-005
B3: TNC-001 (peptide)
peptide: AMTQLLAGV
notes: also called IMA-TNC-001
B4: CHI-001 (peptide)
peptide: SLWAGVVVL
notes: also called IMA-CHI-001
B5: BCA-002 (peptide)
peptide: ALWAWPSEL
notes: also called IMA-BCA-002
B6: FABP7-001 (peptide)
peptide: LTFGDVVAV
notes: also called IMA-FABP7-001
B7: NRCAM-001 (peptide)
peptide: GLWHHQTEV
notes: also called IMA-NRCAM-001
B8: IGF2BP3-001 (peptide)
peptide: KIQEILTQV
notes: also called IMA-IGF2BP3-001
B9: PTP-003 (peptide)
peptide: AIIDGVESV
notes: also called IMA-PTP-003
B10: MET-001 (peptide)
peptide: YVDPVITSI
notes: also called MET-005 derived MET-001
B11: CSP-001 (peptide)
peptide: TMLARLASA
notes: also called IMA-CSP-001
B12: MET-005 (peptide)
peptide: TFSYVDPVITSISPKYG
notes: also called IMA-MET-005; full-length MET-005

The first experiment deals with T1, MHC molecule coded by the HLA-A*0201 allele (recombinant HLA-A*0201 heavy chain refolded with beta-2 … (human)). Put plainly: ELISA-based MHC refolding assay.
B1: the binding result is on record as “binds”.

For B2, the binding result was “binds”.

Take B3: the binding result is “binds”.

B4: the binding result is on record as “binds”.

In the case of B5, the binding result is on record as “binds”.

Regarding B6, the binding result is reported as “binds”.

B7: the binding result was “binds”.

Consider B8, for which the binding result is given as “binds”.

Regarding B9, the binding result is “binds”.

For a further experiment, the target named is T1, MHC molecule coded by the HLA-A*0201 …. Description: ELISA-based MHC refolding assay, recombinant HLA-A*0201 heavy chain + b2m + graded peptide. In general terms: An ELISA detects its analyte on a solid surface through an enzyme-linked reagent.
B10: the Kd came out at 0.14 nM.

As to B11, the Kd came to 2.05 nM.

The target is the same in another experiment. Description: tetramer production / HLA-A*0201 refolding with peptide.
For B12, the binding result is listed as “no binding”.
